Measured values published in paper PMC4909244, “Crystal structure of glutamate-1-semialdehyde-2,1-aminomutase from Arabidopsis thaliana” (Acta Crystallographica. Section F, Structural Biology …, 2016).

Target: the molecule itself
Assay: SEC; size-exclusion chromatography, in solution; data not shown

B1: Glutamate-1-semialdehyde-2,1-aminomutase from Arabidopsis thaliana (AtGSA1) (enzyme)
chain: not shown
notes: The sense primer puts a TEV site (ENLYFQG) directly before VDEKKKS, so a Gly may remain at the N-terminus after cleavage (surmised from the primer); The protein retains the cofactors PMP/PLP; The first six N-terminal residues are not modelled in the structure; also called GSAM; glutamate-1-semialdehyde aminotransferase; source: E. coli BL21(DE3), purified (nickel-nitrilotriacetic acid column, TEV …)
  stoichiometry N: 2
